# Reference: PMC6208366
# B1: full-length human FKBP51 (natural protein)
# chain: MTTDEGAKNNEESPTATVAEQGEDITSKKDRGVLKIVKRVGNGEETPMIGDKVYVHYKGKLSNGKKFDSSHDRNEPFVFSLGKGQVIKAWDIGVATMKKGEICHLLCKPEYAYGSAGSLPKIPSNATLFFEIELLDFKGEDLFEDGGIIRRTKRKGEGYSNPNEGATVEIHLEGRCGGRMFDCRDVAFTVGEGEDHDIPIGIDKALEKMQREEQCILYLGPRYGFGEAGKPKFGIEPNAELIYEVTLKSFEKAKESWEMDTKEKLEQAAIVKEKGTVYFKGGKYMQAVIQYGKIVSWLEMEYGLSEKESKASESFLLAAFLNLAMCYLKLREYTKAVECCDKALGLDSANEKGLYRRGEAQLLMNEFESAKGDFEKVLEVNPQNKAARLQISMCQKKAKEHNERDRRIYANMFKKFAEQDAKEEANKAMGKKTSEGVTNEKGTDSQAMEEEKPEGHV
# Biological target: IANBD-labeled Hsp90 M362C (human)
# Assay: stopped-flow fluorescence; IANBD-labeled Hsp90 M362C (1 µM) mixed with equal volumes of FKBP51, FK1-FK2, FK2-TPR or buffer, pseudo-first-order, 37 °C, 25 mM sodium phosphate/300 mM NaCl pH 7.2; rates as fluorescence increase at 20 s
binder,measurement,value
B1,"ΔF (rate of Hsp90 binding, fluorescence increase)",0.0021 s⁻¹
